Results on six molecules are retold here after patent US5705609A, “Decorin fragments inhibiting cell regulatory factors” (La Jolla Cancer Research Foundation, priority 1995, dated 1998).

The subject of one assay is CHO cells. The assay is described as follows: [3H]thymidine incorporation (growth) in CHO cells. It counts as cell-based. The settings on record: TGFβ-1 at 5 ng/ml. On the procedure:
(§1) The ability of decorin to modulate the activity of TGFβ-1 was examined in [^3 H]thymidine incorporation assays. In one assay, an unamplified CHO cell line transfected only with pSV2dhfr (control cell line A in reference 1, called CHO cells here) was used. The cells were maintained in nucleoside-free alpha-modified minimal essential medium (e-MEM, GIBCO, Long Island, N.Y.) supplemented with 9% dialyzed fetal calf serum (dFCS) and [^3 H]thymidine incorporation was assayed as described (Cheifetz et al., Cell 48:409-415 (1987)). TGFβ-1 was added to the CHO cell cultures at 5 ng/ml. At this concentration, it induced a 50% increase of [^3 H]thymidine incorporation in these cells. Decorin or BSA was added to the medium at different concentrations. The data represent percent neutralization of the TGFβ-1-induced growth stimulation, i.e., [^3 H]thymidine incorporation, in the absence of either TGFβ-1 or decorin=0%, incorporation in the presence of TGFβ-1 but not decorin=100%. […] Decorin (.circle-solid.) BSA (.largecircle.).
This was shown by gel filtration of the DEAE-isolated decorin under dissociating conditions. […] The fractions were analyzed by SDS-PAGE, decorin ELISA and cell growth assays, all described above. […] Shown are the ability of the gel filtration fractions to affect [^3 H]-thymidine incorporation by the CHO cells and the concentration of decorin as determined by enzyme immunoassay. […]
On the technique in general: Dividing cells build labelled thymidine or BrdU into new DNA.

Another assay deals with Mv1Lu cells. The assay is described as follows: [3H]thymidine incorporation (growth) in Mv1Lu mink lung epithelial cells. The format is cell-based. As to conditions: TGFβ-1 at 0.5 ng/ml. On the procedure:
Assay was performed as in FIG. 4A, except that TGFβ-1 was added at 0.5 ng/ml. This concentration of TGFβ induces 50% reduction of [^3 H]-thymidine incorporation in the Mv1Lu cells. The data represent neutralization of TGFβ-induced growth inhibition; i.e., [^3 H]-thymidine incorporation in the presence of neither TGFβ or decorin=100%; incorporation in the presence of TGFβ but not decorin=0%. […] This was shown by gel filtration of the DEAE-isolated decorin under dissociating conditions. […] The fractions were analyzed by SDS-PAGE, decorin ELISA and cell growth assays, all described above. Three protein peaks were obtained. […] Shown are the ability of the gel filtration fractions to affect [^3 H]-thymidine incorporation by the CHO cells and the concentration of decorin as determined by enzyme immunoassay. Shown also (arrows) are the elution positions of molecular size markers: BSA, bovine serum albumin (Mr=66,000); CA, carbonic anhydrase (Mr=29,000); Cy, cytochrome c (Mr=12,400); AP, aprotinin (Mr=6,500); TGF, [^125 I]TGFβ-1 (Mr=25,000).

For assay [1], the target named is T1, TGFβ-1 (Homo sapiens, UniProt P01137). Kind of assay: affinity chromatography of 125I-TGFβ1 on control gelatin-Sepharose.
Assay [2] deals with T1, TGFβ-1.
Assay [3] concerns the target T2, TGF-β (Homo sapiens, UniProt P01137). Kind of assay: Binding of 125I-TGF-β to L-M(tk-) cells. The settings on record: 250 pM [125I]TGF-β, 2 hours room temperature; proteins. On the procedure: (§2) About 2.5×10^4 HepG2 cells or L-M(tk-) cells were incubated with 250 pM[^125 I]TGF-β in the presence of recombinant human decorin (DC-12), PT-71 (MBP), decorin fragments (PT-72, -73, -84, -85, -86 and -87) or anti-TGF-β antibodies for 2 hours at room temperature. Cells were washed with washing buffer (128 mM NaCl, 5 mM KCl, 5 mM […], 1.2 mM CaCl2, 50 mM HEPES, pH 7.5) four times before determination of bound CPM.
The activity of the peptides was evaluated using the L-M(tk-) TGFβ1 binding inhibition assay described in Example VII, except various concentrations of peptide were incubated with the cells and TGFβ1 instead of decorin and recombinant decorin fragments. The negative control was a synthetic peptide corresponding to the first 15 amino acids of decorin, which has the sequence […](SEQ ID NO. 21).

The target of assay [4] is T2, TGF-β. The assay is described as follows: Binding of 125I-TGF-β to HepG2 cells. The settings on record: 250 pM [125I]TGF-β, 2 hours room temperature. On the procedure:
as §2

Assay [5] concerns the target T1, TGFβ-1. Kind of assay: [3H]thymidine incorporation assay: neutralization of TGFβ-1-induced growth inhibition in Mv1Lu cells. It counts as cell-based, mink. Also on record: contains a major band at 25 kd; This band represents the native TGFβ-1 dimer. As to conditions: TGFβ-1 0.5 ng/ml. On the procedure: Assay was performed as in FIG. 4A, except that TGFβ-1 was added at 0.5 ng/ml. This concentration of TGFβ induces 50% reduction of [^3 H]-thymidine incorporation in the Mv1Lu cells. The data represent neutralization of TGFβ-induced growth inhibition; i.e., [^3 H]-thymidine incorporation in the presence of neither TGFβ or decorin=100%; incorporation in the presence of TGFβ but not decorin=0%.
Target sequence in this assay (P01137 279-390 limits assumed, species assumed): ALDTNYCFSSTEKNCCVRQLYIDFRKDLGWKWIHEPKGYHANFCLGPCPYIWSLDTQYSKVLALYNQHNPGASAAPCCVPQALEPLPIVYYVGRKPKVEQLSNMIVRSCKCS

Assay [6] deals with T1, TGFβ-1. The assay is described as follows: [3H]thymidine incorporation assay: neutralization of TGFβ-1-induced growth stimulation in CHO cells. It counts as cell-based. The arrangement: contains a major band at 25 kd; This band represents the native TGFβ-1 dimer; purchased Calbiochem, La Jolla, Calif. On the procedure: as §1
Target sequence in this assay (P01137 279-390 limits assumed, species assumed): as above
IgG from a normal rabbit serum had no effect in the assay (.largecircle.).

The target in assay [7] is T1, TGFβ-1. The assay is described as follows: Microtiter binding assay: [125I]-TGFβ-1 binding to decorin-coated wells and competition. The arrangement: contains a major band at 25 kd; This band represents the native TGFβ-1 dimer; purchased Calbiochem, La Jolla, Calif. The settings on record: intact proteoglycans, 37° C. 4 hours (FIG. 3A). On the procedure: The binding of TGFβ-1 to decorin was also examined in a microtiter binding assay. To perform the assay, the wells of a 96-well microtiter plate were coated overnight with 2μg/ml of recombinant decorin in 0.1M sodium carbonate buffer, pH 9.5. The wells were washed with PBS containing 0.05% Tween (PBS/Tween) and samples containing 5×10^4 cpm of [^125 I]-TGFβ-1 and various concentrations of competitors in PBS/Tween were added to each well. The plates were then incubated at 37° C. for 4 hours (at 4° C. overnight in experiments with chondroitinase ABC-digested proteoglycans), washed with PBS/Tween and the bound radioactivity was solubilized with 1% SDS in 0.2M NaOH. Total binding without competitors was about 4% under the conditions used. Nonspecific binding, determined by adding 100-fold molar excess of unlabeled TGFβ-1 over the labeled TGFβ-1 to the incubation mixture, was about 13% of total binding. This assay was also used to study the ability of other decorin preparations and related proteins to compete with the interaction.
Decorin isolated from bovine skin and biglycan isolated from bovine articular cartilage (PGI and PGII, obtained from Dr. Lawrence Rosenberg, Monteflore Medical Center, N.Y.; and described in Rosenberg et al., J. Biol. Chem. 250:6304-6313, (1985), incorporated by reference herein), chicken cartilage proteoglycan (provided by Dr. Paul Goetinck, La Jolla Cancer Research Foundation, La Jolla, Calif., and described in Goetinck, P. F., in THE GLYCOCONJUGATES, Vol. III, Horwitz, M. I., Editor, pp. 197-217, Academic Press, NY). For the preparation of core proteins, proteoglycans were digested with chondroitinase ABC (Seikagaku, Tokyo, Japan) by incubating 500 μg of proteoglycan with 0.8 units of chondroitinase ABC in 250 μl of 0.1M Tris/Cl, pH 8.0, 30 mM sodium acetate, 2 mM PMSF, 10 mM N-ethylmalelmide, 10 mM EDTA, and 0.36 mM pepstatin for 1 hour at 37° C. Recombinant decorin and decorin isolated from bovine skin (PGII) inhibited the binding of [^125 I]-TGFβ-1, as expected (FIG. 3A). […] This notion was further supported by competition experiments with the mutated decorin core protein (not shown) and chondroitinase ABC-digested decorin and biglycan (FIG.3B). Each of these proteins was inhibitory, whereas cartilage proteoglycan core protein was not.
Target sequence in this assay (P01137 279-390 limits assumed, species assumed): as above

The target of assay [8] is TGFβ-1 (Homo sapiens (Human), UniProt P01137, 125I label in most assays (chloramine T method in Example II; Bolton-Hunter labeled in Example VI); unlabeled in the experiment of Table I and in the growth assays). The assay is described as follows: soluble peptide competitor of 125I-TGF-β binding to immobilized decorin.
Method: The wells were placed in a 37° C. incubator overnight and thereafter washed 3 times with 200 µl PBS (0.15M NaCl) per well to remove unbound decorin.
Following the incubation, 50 µl of the free TGF-β supernatants were transferred to labeled tubes. The plate was washed 3 times with 0.05% Tween-20 in PBS (200 µl/well). The wells were then transferred into tubes for counting in a gamma counter.

T2 sequence (P01137 279-390 limits assumed): as the sequence (P01137 279-390 limits assumed, species assumed) above

For “TGFβ-1: commercially obtained transforming growth factor β-1”, the “increase of [3H]thymidine incorporation” value in the assay with CHO cells is listed as 50%. Besides, the “reduction of [3H]-thymidine incorporation” value with Mv1Lu cells amounted to 50%. For gelatin, the percent of the radioactivity in the urea-eluted fraction with TGFβ-1 [1] was 2%. The molecule “recombinant human decorin (from UniProt P07585)” gave a 3H-thymidine incorporation in CHO cells stimulated with 5 ng/ml TGFβ-1, half maximal neutralization in the assay with TGFβ-1 [2] of 5 µg/mL.

B1: Recombinant human decorin: recombinant human decorin (DC-12) (protein)
chain: DEASGIGPEVPDDRDFEPSLGPVCPFRCQCHLRVVQCSDLGLDKVPKDLPPDTTLLDLQNNKITEIKDGDFKNLKNLHALILVNNKISKVSPGAFTPLVKLERLYLSKNQLKELPEKMPKTLQELRAHENEITKVRKVTFNGLNQMIVIELGTNPLKSSGIENGAFQGMKKLSYIRIADTNITSIPQGLPPSLTELHLDGNKISRVDAASLKGLNNLAKLGLSFNSISAVDNGSLANTPHLRELHLDNNKLTRVPGGLAEHKYIQVVYLHNNNISVVGSSDFCPPGHNTKKASYSGVSLFSNPVQYWEIQPSTFRCVYVRSAIQLGNYK
modifications: single glycosaminoglycan chain of a chondroitin sulfate/dermatan sulfate type on serine-4
B1: the “inhibition of 125I-TGF-β binding to L-M(tk-) cells” value in the assay with TGF-β [3] is reported as “inhibited”. The “inhibition of 125I-TGF-β binding to HepG2 cells” value in the assay with TGF-β [4] is reported as “inhibited”.

B2: Decorin: recombinant decorin proteoglycan purified from transfected CHO cell media (protein)
chain: B1 chain
modifications: single glycosaminoglycan chain of a chondroitin sulfate/dermatan sulfate type on serine-4
notes: recombinant decorin proteoglycan purified from transfected CHO cell media
For the molecule B2, the “effect on TGFβ-1-induced growth inhibition” value in the assay with TGFβ-1 [5] is given as “revealed an effect by decorin on the activity of TGFβ-1”. Also, the “half maximal activity, neutralization of growth stimulatory activity of TGFβ-1” value in the assay with TGFβ-1 [6] (TGFβ-1 5 ng/ml) is recorded as “about 5 μg/ml”. For the same molecule, the “[3H]-thymidine incorporation with additional decorin” value with TGFβ-1 [6] (higher decorin concentrations) was “suppressed the [^3 H]-thymidine incorporation below the level observed without any added TGFβ-1”. Also, the “inhibition of [125I]-TGFβ-1 binding to decorin-coated wells” value with TGFβ-1 [7] is “inhibited”.

With HLRVVQCSDLGL [peptide 16G], the binding result in the assay with TGFβ-1 [8] was “binds”.
